This note sets out measurements from PMC8017934.

Where “and” joins values, the source holds several entries; their conditions need not be identical. Identical values can stand only once. Like-named read-outs stand apart in the source and are kept apart here.

Series [1] concerns Bat-Hp-CoV NSP1;human 40S ribosomal subunit (Bat-Hp-CoV;Homo sapiens). In words: single-molecule fluorescence (ZMW).
In series [2] the target is MERS-CoV NSP1;human 40S ribosomal subunit (MERS-CoV;Homo sapiens) (UniProt K9N7C7). The experiment in a line: single-molecule fluorescence (ZMW).
Series [3] concerns the target SARS-CoV NSP1;human 40S ribosomal subunit (SARS-CoV;Homo sapiens) (UniProt P0C6X7). The experiment in a line: single-molecule fluorescence (ZMW).
Series [4] addresses SARS-CoV-2 NSP1 (ybbR-NSP1) WT;human 40S ribosomal subunit (SARS-CoV-2;Homo sapiens) (UniProt P0DTD1). The experiment in a line: single-molecule fluorescence (ZMW).
Series [5] addresses SARS-CoV-2 NSP1 (ybbR-NSP1) WT;human 40S ribosomal subunit;eIF1, eIF1A, eIF5, TC-GMPPNP (eIF2, Met-tRNAi) (SARS-CoV-2;Homo sapiens;Homo sapiens) (UniProt P0DTD1). In words: single-molecule fluorescence (ZMW).
The subject of series [6] is human 40S ribosomal subunit;eIF1, eIF1A, eIF5, TC-GMPPNP (eIF2, Met-tRNAi) (Homo sapiens;Homo sapiens). In words: single-molecule fluorescence (ZMW).
Series [7] has as its target eIF1–40S(biotin) subunit complex (human) (UniProt P41567).
Chain of UniProt P41567 (P41567 whole entry, looked up, tested part not stated, one chain of several): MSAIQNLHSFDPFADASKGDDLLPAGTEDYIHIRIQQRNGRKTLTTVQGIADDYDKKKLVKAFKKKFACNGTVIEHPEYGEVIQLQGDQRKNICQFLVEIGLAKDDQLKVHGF
Series [8] has as its target human 40S ribosomal subunit with the ybbR tag on RACK1, biotinylated or Cy5-labelled (human) (UniProt P63244).
The target is the same in series [9]. This is another data set of the same source.
Series [10] has the same target. The source holds these as a separate data set.
In series [11] the target is human 40S ribosomal subunit with the ybbR tag on uS19, Cy3-labelled (human (endogenous in HEK293T)) (UniProt P62841).
Series [12] deals with human 40S ribosomal subunit with the ybbR tag on RACK1, biotinylated or Cy5-labelled (human) (UniProt P63244). This is another data set of the same source.
In series [13] the target is human 80S ribosome assembled on the CrPV IRES from 40S-ybbR-Cy3 and 60S-ybbR-Cy5 subunits (human (endogenous in HEK293T)) (UniProt P62841).
Series [14] addresses SARS-CoV-2 NSP1 (ybbR-NSP1) WT;human 40S ribosomal subunit;eIF1, eIF1A, eIF5, eIF3 lacking 3j, TC-GMPPNP (eIF2, Met-tRNAi) (SARS-CoV-2;Homo sapiens;Homo sapiens) (UniProt P0DTD1). The experiment in a line: single-molecule fluorescence (ZMW).
The target of series [15] is human 40S ribosomal subunit with the ybbR tag on RACK1, biotinylated or Cy5-labelled (human) (UniProt P63244). The source holds these as a separate data set.

On to “GGCCAGCCCCCUGAUGGGGGCGACACUCCACCAUGAAUCACUCCCCUGUGAGGAACUACUGUCUUCACGCAGAAAGCGUCUAGCCAUGGCGUUAGUAUGAGUGUCGUGCAGCCUCCAGGACCCCCCCUCCCGGGAGAGCCAUAGUGGUCUGCGGAACCGGUGAGUACACCGGAAUUGCCAGGACGACCGGGUCCUUUCUUGGAUAAACCCGCUCAAUGCCUGGAGAUUUGGGCGUGCCCCCGCAAGACUGCUAGCCGAGUAGUGUUGGGUCGCGAAAGGCCUUGUGGUACUGCCUGAUAGGGUGCUUGCGAGUGCCCCGGGAGGUCUCGUAGACCGUGCACCAUG [HCV+0]”, for which the values for the Kd in series [1], in series [3] and in series [4] were less than 1 nM, less than 2 nM and less than 1 nM, respectively. For the same substance, the binding signal (% complexes bound) in [2] came to 11. For the same substance, the binding signal (% 40S events with NSP1) in series [4] is 57.

Regarding “GGUCUCUCUCUCUCUCUCUAUGUUCAAAUAAUCUCUCUCUCUCUCUCUCUCUCUCUCUCUCUC [M+41]”, the binding signal (% complexes bound) in series [4] turned out to be 16. For the same substance, the values for the binding signal in series [5] and in series [6] were 4 s-1 (koff) and 0.0038 s-1 (koff), respectively.

“SARS-CoV-2 NSP1 with an N-terminal ybbR tag, fluorescently labelled (from UniProt P0DTD1 1-180) (natural protein)”: in series [7], the dissociation constant (Kd) is less than 10 nM, the dissociation rate constant (koff) is 0.0042 s⁻¹ and the on-rate (kon) was found to be 300000 M⁻¹ s⁻¹. In addition, in [8], the Kd is less than 1 nM; the fraction of IRES–40S complexes bound at least once by NSP1 (≥∼5 s) was 77% and 60%; the dissociation rate constant (koff) is less than 0.0043 s⁻¹. In series [9], this substance showed a Kd greater than 3000 nM and a koff of 0.25 s⁻¹. In addition, in series [10], the fraction of mRNA–40S complexes bound at least once by NSP1 (≥∼5 s) was 16% and the kobs (apparent association rate) was less than 0.002 s⁻¹. Further, the time NSP1 remained bound after association in [11] was 120 s. The association rate constant (kon) in series [12] fell in the range of 3e+06 to 4e+06 M⁻¹ s⁻¹. The fraction of traces with an NSP1 binding event in series [13] came out at 30%.

Regarding “GGCCAGCCCCCUGAUGGGGGCGACACUCCACCAUGAAUCACUCCCCUGUGAGGAACUACUGUCUUCACGCAGAAAGCGUCUAGCCAUGGCGUUAGUAUGAGUGUCGUGCAGCCUCCAGGACCCCCCCUCCCGGGAGAGCCAUAGUGGUCUGCGGAACCGGUGAGUACACCGGAAUUGCCAGGACGACCGGGUCCUUUCUUGGAUAAACCCGCUCAAUGCCUGGAGAUUUGGGCGUGCCCCCGCAAGACUGCUAGCCGAGUAGUGUUGGGUCGCGAAAGGCCUUGUGGUACUGCCUGAUAGGGUGCUUGCGAGUGCCCCGGGAGGUCUCGUAGACCGUGCACCAUGAGCACGAAUCCUAAACCUCAAAGAAAAACCGCCAGAACCAUGGAAGAC [HCV+48]”, in [4], the Kd is greater than 2000 nM and the binding signal (% 40S events with NSP1) was 60.

“GGCCAGCCCCCUGAUGGGGGCGACACUCCACCAUGAAUCACUCCCCUGUGAGGAACUACUGUCUUCACGCAGAAAGCGUCUAGCCAUGGCGUUAGUAUGAGUGUCGUGCAGCCUCCAGGACCCCCCCUCCCGGGAGAGCCAUAGUGGUCUGCGGAACCGGUGAGUACACCGGAAUUGCCAGGACGACCGGGUCCUUUCUUGGAUAAACCCGCUCAAUGCCUGGAGAUUUGGGCGUGCCCCCGCAAGACUGCUAGCCGAGUAGUGUUGGGUCGCGAAAGGCCUUGUGGUACUGCCUGAUAGGGUGCUUGCGAGUGCCCCGGGAGGUCUCGUAGACCGUGCACCAUGAGCACG [HCV+6]” had a binding signal (% complexes bound) in series [4] of 81.

On to “GGCCAGCCCCCUGAUGGGGGCGACACUCCACCAUGAAUCACUCCCCUGUGAGGAACUACUGUCUUCACGCAGAAAGCGUCUAGCCAUGGCGUUAGUAUGAGUGUCGUGCAGCCUCCAGGACCCCCCCUCCCGGGAGAGCCAUAGUGGUCUGCGGAACCGGUGAGUACACCGGAAUUGCCAGGACGACCGGGUCCUUUCUUGGAUAAACCCGCUCAAUGCCUGGAGAUUUGGGCGUGCCCCCGCAAGACUGCUAGCCGAGUAGUGUUGGGUCGCGAAAGGCCUUGUGGUACUGCCUGAUAGGGUGCUUGCGAGUGCCCCGGGAGGUCUCGUAGACCGUGCACCAUGAGCACGAAUCCU [HCV+12]”, for which the binding signal in series [4] was 0.044 s-1 (kobs); in series [14] it was 0.013 s-1 (kobs).

As for “SARS-CoV NSP1 with an N-terminal ybbR tag, Cy3-labelled (from UniProt P0C6X7 1-180) (natural protein)”, in [15], the Kd is less than 2 nM, the fraction of IRES–40S complexes bound at least once by NSP1 (≥∼5 s) was 62% and the koff is less than 0.006 s⁻¹.

The term Kd denotes the constant that tells how readily two partners part at equilibrium. A lower Kd goes with tighter binding. Broadly, the koff is a measure of how fast the partners let go of each other. Read a low koff as a long-lived complex. Usually kon stands for the second-order rate constant of association.
